Test results from US20200317768A1 (published 2020).

T1: cynomolgus monkey FcγRIIb extracellular domain with C-terminal His-tag (cynomolgus monkey)
T1 construct: also called cyno FcgRIIb; cynoFcγRIIb
T1 chain: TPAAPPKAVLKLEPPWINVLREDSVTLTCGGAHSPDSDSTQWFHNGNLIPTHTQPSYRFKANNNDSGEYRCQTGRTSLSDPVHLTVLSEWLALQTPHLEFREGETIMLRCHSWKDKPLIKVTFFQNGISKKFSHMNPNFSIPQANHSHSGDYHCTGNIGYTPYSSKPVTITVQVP

B1: M103205H795-MY520/M103202L889-SK1 (antibody, human IgG1, kappa)
heavy: QVTLKESGPVLVKPTETLTLTCTVSGIDLSHDDISWVRQAPGKGLEWVGIISYAGSTYYASWAKGRLTISKDTSKNQVVLTMTNMDPVDTATYYCARGVPAYSHGGDLWGQGTLVTVSSASTKGPSVFPLAPSSKSTSGGTAALGCLVKDYFPEPVTVSWNSGALTSGVHTFPAVLQSSGLYSLSSVVTVPSSSLGTQTYICNVNHKPSNTKVDKKVEPKSCDKTHTCPPCPADELLTGPVVFLFPPKPKDTLMISRTPEVTCVVVDVSDEDPEVKFNWYVDGVEVHNAKTKPREELYNSTYRVVSVLTVLHQDWLNGKEYKCKVSNKALPKPIEKTISKAKGQPREPQVYTLPPSREEMTKNQVSLTCLVKGFYPSDIAVEWESNGQPENNYKTTPPVLDSDGSFFLYSKLTVDKSRWQQGNVFSCSVMHEALHNHYTQKSLSLSP
light: DIVMTQSPATLSLSPGERATLSCTSSQSVYHANWLSWFQQKPGQPPKLLIYWASTLAYGVPSRFSGSGSGTDFTLTISSLQPEDAATYYCAGGYGGGRYAFGQGTKVEIKRTVAAPSVFIFPPSDEQLKSGTASVVCLLNNFYPREAKVQWKVDNALQSGNSQESVTEQDSKDSTYSLSSTLTLSKADYEKHKVYACEVTHQGLSSPVTKSFNRGEC
notes: Substitutions introduced into M103205H795-SG1, expressed with M103202L889-SK1 as light chain; EU numbering
B2: M103205H795-MY524/M103202L889-SK1 (antibody, human IgG1, kappa)
heavy: QVTLKESGPVLVKPTETLTLTCTVSGIDLSHDDISWVRQAPGKGLEWVGIISYAGSTYYASWAKGRLTISKDTSKNQVVLTMTNMDPVDTATYYCARGVPAYSHGGDLWGQGTLVTVSSASTKGPSVFPLAPSSKSTSGGTAALGCLVKDYFPEPVTVSWNSGALTSGVHTFPAVLQSSGLYSLSSVVTVPSSSLGTQTYICNVNHKPSNTKVDKKVEPKSCDKTHTCPPCPGPELLTGPSVFLFPPKPKDTLMISRTPEVTCVVVDVSDEDPEVKFNWYVDGVEVHNAKTKPREELYNSTYRVVSVLTVLHQDWLNGKEYKCKVSNKALPKPIEKTISKAKGQPREPQVYTLPPSREEMTKNQVSLTCLVKGFYPSDIAVEWESNGQPENNYKTTPPVLDSDGSFFLYSKLTVDKSRWQQGNVFSCSVMHEALHNHYTQKSLSLSP
light: DIVMTQSPATLSLSPGERATLSCTSSQSVYHANWLSWFQQKPGQPPKLLIYWASTLAYGVPSRFSGSGSGTDFTLTISSLQPEDAATYYCAGGYGGGRYAFGQGTKVEIKRTVAAPSVFIFPPSDEQLKSGTASVVCLLNNFYPREAKVQWKVDNALQSGNSQESVTEQDSKDSTYSLSSTLTLSKADYEKHKVYACEVTHQGLSSPVTKSFNRGEC
notes: as for B1
B3: M103205H795-MY522/M103202L889-SK1 (antibody, human IgG1, kappa)
heavy: QVTLKESGPVLVKPTETLTLTCTVSGIDLSHDDISWVRQAPGKGLEWVGIISYAGSTYYASWAKGRLTISKDTSKNQVVLTMTNMDPVDTATYYCARGVPAYSHGGDLWGQGTLVTVSSASTKGPSVFPLAPSSKSTSGGTAALGCLVKDYFPEPVTVSWNSGALTSGVHTFPAVLQSSGLYSLSSVVTVPSSSLGTQTYICNVNHKPSNTKVDKKVEPKSCDKTHTCPPCPGPELLTGPVVFLFPPKPKDTLMISRTPEVTCVVVDVSDEDPEVKFNWYVDGVEVHNAKTKPREEQYNSTYRVVSVLTVLHQDWLNGKEYKCKVSNKALPKPIEKTISKAKGQPREPQVYTLPPSREEMTKNQVSLTCLVKGFYPSDIAVEWESNGQPENNYKTTPPVLDSDGSFFLYSKLTVDKSRWQQGNVFSCSVMHEALHNHYTQKSLSLSP
light: DIVMTQSPATLSLSPGERATLSCTSSQSVYHANWLSWFQQKPGQPPKLLIYWASTLAYGVPSRFSGSGSGTDFTLTISSLQPEDAATYYCAGGYGGGRYAFGQGTKVEIKRTVAAPSVFIFPPSDEQLKSGTASVVCLLNNFYPREAKVQWKVDNALQSGNSQESVTEQDSKDSTYSLSSTLTLSKADYEKHKVYACEVTHQGLSSPVTKSFNRGEC
notes: as for B1
B4: M103205H795-MY525/M103202L889-SK1 (antibody, human IgG1, kappa)
heavy: QVTLKESGPVLVKPTETLTLTCTVSGIDLSHDDISWVRQAPGKGLEWVGIISYAGSTYYASWAKGRLTISKDTSKNQVVLTMTNMDPVDTATYYCARGVPAYSHGGDLWGQGTLVTVSSASTKGPSVFPLAPSSKSTSGGTAALGCLVKDYFPEPVTVSWNSGALTSGVHTFPAVLQSSGLYSLSSVVTVPSSSLGTQTYICNVNHKPSNTKVDKKVEPKSCDKTHTCPPCPTPELLTGPVVFLFPPKPKDTLMISRTPEVTCVVVDVSDEDPEVKFNWYVDGVEVHNAKTKPREEQYNSTYRVVSVLTVLHQDWLNGKEYKCKVSNKALPKPIEKTISKAKGQPREPQVYTLPPSREEMTKNQVSLTCLVKGFYPSDIAVEWESNGQPENNYKTTPPVLDSDGSFFLYSKLTVDKSRWQQGNVFSCSVMHEALHNHYTQKSLSLSP
light: DIVMTQSPATLSLSPGERATLSCTSSQSVYHANWLSWFQQKPGQPPKLLIYWASTLAYGVPSRFSGSGSGTDFTLTISSLQPEDAATYYCAGGYGGGRYAFGQGTKVEIKRTVAAPSVFIFPPSDEQLKSGTASVVCLLNNFYPREAKVQWKVDNALQSGNSQESVTEQDSKDSTYSLSSTLTLSKADYEKHKVYACEVTHQGLSSPVTKSFNRGEC
notes: as for B1
B5: M103205H795-MY523/M103202L889-SK1 (antibody, human IgG1, kappa)
heavy: QVTLKESGPVLVKPTETLTLTCTVSGIDLSHDDISWVRQAPGKGLEWVGIISYAGSTYYASWAKGRLTISKDTSKNQVVLTMTNMDPVDTATYYCARGVPAYSHGGDLWGQGTLVTVSSASTKGPSVFPLAPSSKSTSGGTAALGCLVKDYFPEPVTVSWNSGALTSGVHTFPAVLQSSGLYSLSSVVTVPSSSLGTQTYICNVNHKPSNTKVDKKVEPKSCDKTHTCPPCPGPELLTGPVVFLFPPKPKDTLMISRTPEVTCVVVDVSDEDPEVKFNWYVDGVEVHNAKTKPREELYNSTYRVVSVLTVLHQDWLNGKEYKCKVSNKALPKPIEKTISKAKGQPREPQVYTLPPSREEMTKNQVSLTCLVKGFYPSDIAVEWESNGQPENNYKTTPPVLDSDGSFFLYSKLTVDKSRWQQGNVFSCSVMHEALHNHYTQKSLSLSP
light: DIVMTQSPATLSLSPGERATLSCTSSQSVYHANWLSWFQQKPGQPPKLLIYWASTLAYGVPSRFSGSGSGTDFTLTISSLQPEDAATYYCAGGYGGGRYAFGQGTKVEIKRTVAAPSVFIFPPSDEQLKSGTASVVCLLNNFYPREAKVQWKVDNALQSGNSQESVTEQDSKDSTYSLSSTLTLSKADYEKHKVYACEVTHQGLSSPVTKSFNRGEC
notes: as for B1
B6: M103205H795-MY521/M103202L889-SK1 (antibody, human IgG1, kappa)
heavy: QVTLKESGPVLVKPTETLTLTCTVSGIDLSHDDISWVRQAPGKGLEWVGIISYAGSTYYASWAKGRLTISKDTSKNQVVLTMTNMDPVDTATYYCARGVPAYSHGGDLWGQGTLVTVSSASTKGPSVFPLAPSSKSTSGGTAALGCLVKDYFPEPVTVSWNSGALTSGVHTFPAVLQSSGLYSLSSVVTVPSSSLGTQTYICNVNHKPSNTKVDKKVEPKSCDKTHTCPPCPADELLTGPSVFLFPPKPKDTLMISRTPEVTCVVVDVSDEDPEVKFNWYVDGVEVHNAKTKPREELYNSTYRVVSVLTVLHQDWLNGKEYKCKVSNKALPKPIEKTISKAKGQPREPQVYTLPPSREEMTKNQVSLTCLVKGFYPSDIAVEWESNGQPENNYKTTPPVLDSDGSFFLYSKLTVDKSRWQQGNVFSCSVMHEALHNHYTQKSLSLSP
light: DIVMTQSPATLSLSPGERATLSCTSSQSVYHANWLSWFQQKPGQPPKLLIYWASTLAYGVPSRFSGSGSGTDFTLTISSLQPEDAATYYCAGGYGGGRYAFGQGTKVEIKRTVAAPSVFIFPPSDEQLKSGTASVVCLLNNFYPREAKVQWKVDNALQSGNSQESVTEQDSKDSTYSLSSTLTLSKADYEKHKVYACEVTHQGLSSPVTKSFNRGEC
notes: as for B1

Target: T1, cynomolgus monkey FcγRIIb extracellular …
Assay: SPR (BIACORE), antibody captured, FcgR analyte
In the case of B1, the Kd is reported as 960 nM.
In the case of B2, the Kd is reported as 310 nM.
B3 gave a Kd of 530 nM.
Binder B4 has a Kd of 510 nM.
B5 showed a Kd of 430 nM.
With B6 the Kd was 800 nM.
